Experimental findings from the nanobody polyreactivity screen of Harvey et al. (2022) are described below.

This data set can be described thus: yeast display, Sf9 membrane polyspecificity reagent, FACS + sequencing; frameworks hold sequencing errors. In outline: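 Nanobodies came from a synthetic yeast display library in Saccharomyces cerevisiae BJ5465, induced with galactose for 36–48 hours and stained for 1 hour at 4 °C with 10% biotinylated, detergent-solubilized Sf9 membrane reagent. Cells were enriched on streptavidin microbeads and then FACS-sorted, with low and high (top ~1%) gates set on anti-HA fluorescence for expression and streptavidin fluorescence for reagent binding. Each polyreactivity label reflects the gate a clone came from. Genes were amplified by colony PCR, sequenced by MiSeq 2 × 250 and filtered by CDR length.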
Consider “QVQLVESGGGLVQAGGSLRLSCAASGSILGINVMGWYRPAPGKERELVAAISRRGGSTYYADSVKGRFTISRDNAKNTVYLQMNSLKPEDTAVYYCAATRTARTMGYWGQGTQVTVSS”, for which the “polyreactivity (PSR sort gate)” value is “high polyreactivity”.

Take “QVHLVESGRGLVQSGGSLRLSCADSGSTFATNAMGWYRQAPGKERELVAAITSRGGTYYADSVKRRFTISRDKAKNTVYLQMNSLKPEDTAVYYCNAVSRYAFDYCGQGTQVTVSS”: the “polyreactivity (PSR sort gate)” value is reported as “high polyreactivity”.

Consider “QVQLVEKGGGLVQAGGSLRLICAASGYIIWPNAMGWYRQAPGKERELVASITRAGSTNYADSVKGRFTISRDNAKNTVYLQMNSLKPEDTAVYYSAAYFWGGYNYWGQGTQVTVSS”, for which the “polyreactivity (PSR sort gate)” value is “low polyreactivity”.

Take “QVQLVESGGGLVQAGGSLRLSCAASGSILQPIYAMGWYRQAPGKERELVAAISASGGSTYYADSVKGRFTISRDNAKNTVYLQMNSLKPEDTAVYYCNKVGYYASVLGYDYWGQGTQVTVSS”: the “polyreactivity (PSR sort gate)” value is “high polyreactivity”.

“QVQLVESVGVLVQAGGSLPLSCAASGFTFQQYAMGWYRQAPGKERELVAAISWSGGSTNYADSVKGRFTISRDNAKNTVYLQMNSMKPEDTAVYYCAAYLRYYRKEVGYSSMNYWGQGTQVTVSS”: the “polyreactivity (PSR sort gate)” value is recorded as “high polyreactivity”.

As for “QVQLVESGGGLVQAGGSLRLSCAASGSIFERYSMGWYRQATGKERELFATISKSGDSKYYADSVKGRFTISRDNAKNTVYFQMNRLKPEDTAVYYCSADGWYETSDATFYYWGQGTQVNVSS”, the “polyreactivity (PSR sort gate)” value is reported as “low polyreactivity”.

“QVQLVESGGGLVQAGGSLRLSCAASGLIFVSYGMGWYRQAPGKERELVAAITFSGGSTYYADSVKGRFTISRDNAKNTVYLQMNSLKPEDTAVYYCNADYYPGYDYWGQGTQVTVSS”: the “polyreactivity (PSR sort gate)” value was “high polyreactivity”.

For the sequence “QVQLVESGGGLVQAGGSLRLSCAASGYIFTPYAMGWYRQAPGKERELVAAITGSGSSTYYADSVKGRFTISRDNAKNTVYLQMNSLKPEDTAVYYCAADSYGFYGYYYYELEYWGQGTQVTVSS”, the “polyreactivity (PSR sort gate)” value was “low polyreactivity”.

With “QVQLVESGGGLVQAGGSLRLSCAASGRTSGNYAKGWNRQAPGKERELVAAIRYSGSSTFYAESVKGRFTISRDSAKNSVYLQMNSLKPEDTGVYYCARDIRRKGFRYDYWGQGTQVTVSS”, the “polyreactivity (PSR sort gate)” value was “high polyreactivity”.

For “QVQLVESGGGLVQAGGSLRLSCPASGFIFSIYTMGWYRQAPGKERELVAAITRSGSSTYYADSVKGRFTISRDNAKNTVYLQMNSLKPEDTAVSYCNRLCFGQYQPFYGYWGQGTQVTVSS”, the “polyreactivity (PSR sort gate)” value is “high polyreactivity”.

Take “QVQLVESGGGLDQAGGSLRLSWAASGSIFTIYAMGWYRQAPGKERELVAAISRRGGSTYYADSVKGRFTISRDNSKNTVYLQMNSLKPEDTAVYYCNADVAPGIFYGYDCWGQGTQVTVSS”: the “polyreactivity (PSR sort gate)” value is listed as “low polyreactivity”.

For “QVQLVESGGGLVQAGCSLRLSCAASGIIFALNAMGWYRQAPGKERELVAAISDGDSTHYADSVKGRFTISRDNAKNTVYLQMNSLKPEDTAVYYCAVDNRDLFFYPGGFDYWGQGTQVTVSS”, the “polyreactivity (PSR sort gate)” value is given as “low polyreactivity”.

On to “QDQLVESGGGLVQAGGSLRLSCAASGHIFPYNAMGWYRQAPGKEREIVAASSFRGGSTYYADSVKGRFTISRDNAKNTVYLQMNSLKPEDTAVDYCAKRSYPWGQGTQVTVSS”, for which the “polyreactivity (PSR sort gate)” value is “low polyreactivity”.

As for “QVQLVESGGGLVQAGGSLRLSCAASGRIFKDTAMGWYRQAPGKDRELVAGITSIGDNTYYADSVKGRFTISRDNAKNTVYLQMHSLKPEDSAVYDCNALYPYVNGTVPRTTGEYDYWGQGTQVTVSS”, the “polyreactivity (PSR sort gate)” value is reported as “low polyreactivity”.

Turning to “QVQLVDSGGGLVQAGGSLRLSCAASGRTFYYYAMGWSRQEPGKEREFDADISGRGGTTYYADSVKGRFTISRDNAKKTVYLLMNSLKPEDTAVYYCAARSVSTLRYTSRKLRYDYWGQGTQVSVSS”, the “polyreactivity (PSR sort gate)” value is on record as “high polyreactivity”.

On to “QVQLVESGGGLVQAGGSLRFSCAASGFIFYRNTMGWYRQAPGKEREFVAAIRWRGGSTYYADSVKGRFTISRDNAKNTVYLQMNSLKPEDTAVYYCAADTRPGYSGFVYWGQGTQVTVSS”, for which the “polyreactivity (PSR sort gate)” value is reported as “high polyreactivity”.

Regarding “QVQLVESGGGLVQAGGSLRLSCAASGSTFVDYAMGWYRQAPGKERELVAGINGSGGSTYYADSVKGRFTISRDNAKNTVYLQMNSLKPEDTAVYYCAKDGSNRLALPAWDYNYWGQGTQVTVSS”, the “polyreactivity (PSR sort gate)” value is on record as “low polyreactivity”.

On to “QVQLVESGGGLVQAGVSLRLSCAASGRIFPTNAMGWYRQAPGKERELVAAIPVSGGSTYYADSVKGRFTISRDNAKNTVYLQMNSLKPEDTAVYYCAVDDRASVGSRLDHWGQGTQVTVSS”, for which the “polyreactivity (PSR sort gate)” value is “low polyreactivity”.

On to “QVQLVESGGGLVQAGGSLRLSCAASGGIFIVNAMGWYRPAPGKERELVAAITLSGGSTYYADSVKGRFTISRDNAKNTVYFQMNSLKPEDTAVYYCNKDYYPGSYDYWGQGTQVTVSS”, for which the “polyreactivity (PSR sort gate)” value is “low polyreactivity”.

With “QVQLVESGGGLVHAGGSLRLSCAASGRIFYVYAMGWYRQAPGKEREFVASISWSGGSTYYADSVKGRFTISRDNAKNTVYLQMNSLKPEDTAVYYCAARVVRYGYKYYYWGQCTQVTVSS”, the “polyreactivity (PSR sort gate)” value is on record as “low polyreactivity”.

As to “QVQLVESGGGLVQAGGSLRLSCAASGSIFSTYTMGWYRQAPGTERELVAAITRSGGSTYNADSVKGRFTISRDNAKNTVYLQMNSLKPEDTAVYYCAARWKFPSSFYYWGQGTQVTVSS”, the “polyreactivity (PSR sort gate)” value is “high polyreactivity”.

In the case of “QVQLVESGGGLVQAGGSLRLSCAASGFIFRGNTMGWYRQAPGKERELVAAISASGGSTYYADSVKGRFTISRDNAKNTVYLQMNSLKPEDTAVYYCNVAVIYRSRPYWYGMDYWGQGTQVTVSS”, the “polyreactivity (PSR sort gate)” value is listed as “high polyreactivity”.

“QVQLVESGGGLVQAGGSLRLSCAASGSIFQPYAMGWYRQAPGKERELVAAISIGDSTNYADSVKGRFTISRDNAKNTVYLQMNSLKPADTAVYYCNTTGEYYDYWGQATQVTVSS”: the “polyreactivity (PSR sort gate)” value is on record as “low polyreactivity”.

Consider “QVQLVESGGGLVQAGGSLRLSCAASGRTFYTYAMGWYRQAPGKERELVAAISSSGSTYYADSVKGRFTISRDNAKNTVYLQMNSLKPEDTAVYYCNARTSRYRRGGDSWGQGTQVTVSS”, for which the “polyreactivity (PSR sort gate)” value was “high polyreactivity”.

As to “QDHLVESGGGIVQAGGSLRLSCAASGRTFHLNAIGWYRQAPGKARELVAAITNSGGRTSNADSVKGRFTISRDNAKNTVYLQMNSLKPQVTEVFFCNVEVTYSSGKYDYWGQGTQVTVSS”, the “polyreactivity (PSR sort gate)” value is “low polyreactivity”.

Turning to “QVHLVESGGGLVQAGGSLRLSCAASGRTFSGYAMGWYRQAPGKERELVAAITSSGSSTYYADSVKGRFTISRDNAKNTVYLQMNSLKPEDTAVYYCAATPQAHSERYYYQRKYDYWGQGTQVTVSS”, the “polyreactivity (PSR sort gate)” value is given as “low polyreactivity”.

Regarding “QVQLVESGGGLVQAGGSLRLSCAASGIIFAYYAMGWYRQAPGKERELVAAISDNGGRTFYADSVKGRFTISRDNAKNTVYLQMNSLKPEDTAVYYCAAVVYSEYYYWGQGTQVTVSS”, the “polyreactivity (PSR sort gate)” value is “low polyreactivity”.

For the sequence “QVQLVESGGGLVQAGGSLRLSCAASGSIFPDNAMGWDRQAPGKERELVAAITSGGGTYYADSVKGRFTISRDNAKNTVYLQMNSLKPEDTAVYYCNTEDYTQYEPGYYPPNYYWGQGTQVTVSS”, the “polyreactivity (PSR sort gate)” value is given as “low polyreactivity”.

As to “QVQLVDSGGGLVQAGGSLRLSCAASGFTFGPYAMGWYRQAPGKERELGARITYRTGSTYYGDSVKGRFTISRDNAKNTVYLQINSLKPEDTAVYYCAAAYYCGQGTQVTVSS”, the “polyreactivity (PSR sort gate)” value is “high polyreactivity”.

For the sequence “QVQLVESGGGLVQAGGSLRLSCAASGSTFHPNAMGWYIQAPGKERQLVAAISRGGSTNYADSVKGRFTISRDNAKNTVYLQMNSLKPEDTAVYYCAKDFFGISSDPVDMDYWGQGTQVTVSS”, the “polyreactivity (PSR sort gate)” value is “low polyreactivity”.

Regarding “QVQLDESGGGLVQAGGSLRLSCAASGRTFGVYAMGWYRQAPGKERELVAAIRWSGGGTYYADSVKVRFTISRDNAKNTVYLQMNSLKPEDTAVYYCAATLENSPYTRYTDMYYWGQGTQVTVSS”, the “polyreactivity (PSR sort gate)” value was “low polyreactivity”.

Regarding “QVQLVESGGGLVQAGGSLRLSCAASGRTFLIYAMGWYRQAPGKERELVAAITSGGRTKYADSVKGRFTISRDNAKYTVYLQMNSLKPEDTAVYYCAARTGVYRYSRKFDYWGQGTQVTVSS”, the “polyreactivity (PSR sort gate)” value is “high polyreactivity”.

Take “QVQLVESGGGLVQAGGSLRLSCAASGRIFGTYTMGWYRQAPGKERELVAAITTGGITNYADSVKGRFTISRDNAKNTVYLQMNSLKPEDTAVYYCNARWDYGAYEYWGQGTQVTVSS”: the “polyreactivity (PSR sort gate)” value is recorded as “low polyreactivity”.

Regarding “QVQRVESGGGLVQAGGSLRLSCAASGIIFDRYAMGWYRPAPGKERELVAAISSSGGSTYYADSVKGRFTISRDNAKNTVYLQMISLKPEATAVYYCNARHRQWARGYWGQGTQVTVSS”, the “polyreactivity (PSR sort gate)” value is “high polyreactivity”.

As for “QVQLVESGGGLVQAGGSLRLSCAASGIIFGRNARGWYRQAPGKEREMVAGITRRGARTYYADSVKGRFTISRDNAKNTVDLQMKSLKPEDTSVYYCATYSVQTDYGRGDYWGQGTKVTVSS”, the “polyreactivity (PSR sort gate)” value is reported as “high polyreactivity”.

For “QVQHVDSGGGLVQAGGSLRLSCSASGINFPWYAMGWYRQAPGKERELVAAITSGGSTYYADSVKGRFTISRDNAKNTVYLEMYSLKPEDTAVYYCNADYYSWYLGAYLYDYWGQGTQVTVSS”, the “polyreactivity (PSR sort gate)” value is reported as “high polyreactivity”.

Take “QVQLVESGGGLVQAGGSLRLSCAASGRIFGYNTMGWYRQAPGKERELVAAINSGGRTYYADSVKGRFPISRDNAKNTVYLQMNSLKPEDTAVYYCATTTYKRFYRAPTSKYDYWGQGTQVTVSS”: the “polyreactivity (PSR sort gate)” value is listed as “high polyreactivity”.

“QVQLVESWGGLVQAGRSHRLSCAASGIIFDGNALGWYRQAPRKEREMVAAISSSGARTYYADSVKGRFTISRDNAKNSVYLLMNSLKPEDTAVYYCNAAYFNWYTHVWNDYWGQGTQVTVSS”: the “polyreactivity (PSR sort gate)” value is “high polyreactivity”.

On to “QVQLVESGGGLVQAGGSLRLSCAASGLTLTYYAMGWYRQAPGKERELVAAISRSGGSTHYADSVKGRFTISRDNAKNTVYLQMNSLKPEDTAVYYCNAQQGRYWSAKGYDYWGQGTQVTVSS”, for which the “polyreactivity (PSR sort gate)” value was “high polyreactivity”.

“QVQLVESGGGLVQAGGSLRLICAASGSTSLVYAMGWYRQAPGKERDLVAAISWSGGSTYYADSVKGRFTISRDNAKNTVYLQMNSLKPEDTAVYYCAAEYYGYWEYDYWGQGTQVTVSS”: the “polyreactivity (PSR sort gate)” value is “high polyreactivity”.

As for “QVQLVESGGGLVQAGGSLRLSCAASGRTFGTYAMGWYRQAPGKERELVAAIRSNAGSTYYADSVKGRFTISRDNAKNTVYLQMNSLKPEDTAVYYCAKSYRSSRRYNYWGQGTQVTVSS”, the “polyreactivity (PSR sort gate)” value is listed as “high polyreactivity”.
